Measurements from article PMC10184318, “The fission yeast cytokinetic ring component Fic1 promotes septum formation” (Biology Open, 2023).

Target: T1, Fic1-MBP (S. pombe, UniProt O94701 1-272)
T1 construct: Fic1 of S. pombe; The printed name puts MBP after Fic1; source: E. coli, purified (standard biochemistry techniques)
T1 sequence (looked up): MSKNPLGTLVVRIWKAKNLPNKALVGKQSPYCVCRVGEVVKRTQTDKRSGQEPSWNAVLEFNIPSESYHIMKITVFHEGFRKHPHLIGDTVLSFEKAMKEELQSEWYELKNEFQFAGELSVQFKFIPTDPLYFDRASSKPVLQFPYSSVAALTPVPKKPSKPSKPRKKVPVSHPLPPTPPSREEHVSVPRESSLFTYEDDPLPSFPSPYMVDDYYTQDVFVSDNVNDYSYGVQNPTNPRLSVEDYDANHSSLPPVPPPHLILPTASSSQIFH
Experiment: pull-down; in vitro binding assay with recombinant proteins, one bead-bound and one soluble; 20 mM Tris pH 7.4, 150 mM NaCl; 4°C, 1 h; three washes; SDS-PAGE and Coomassie staining
Conditions: both partners purified

- binding result: binds
B1: Cyk3-SH3-GST (aa1-66) (domain or fragment, S. pombe, UniProt O14302 1-66, looked up)
chain: MSIPKQLPCMVRALYAWPGEREGDLKFTEGDLIECLSIGDGKWWIGRHINTNTQGIFPSNFVHCLD
notes: Cyk3 of S. pombe, SH3 domain, residues 1-66; The printed name puts GST after the SH3 domain (Cyk3-SH3-GST, against GST-Cdc15-SH3), which hints at a C-terminal GST; also called Cyk3's SH3 domain; source: E. coli, purified (standard biochemistry techniques)
